Data from US20240010747A1, “ANTI-MRP4 (ENCODED BY ABCC4 GENE) ANTIBODIES AND USES THEREOF” (Kenjockety Biotechnology, Inc., priority 2020, published 2024).

T1: human ABCC4 (Homo sapiens, UniProt O15439)
T1 construct: expressed in transfected cells
T1 sequence (O15439 1-1325): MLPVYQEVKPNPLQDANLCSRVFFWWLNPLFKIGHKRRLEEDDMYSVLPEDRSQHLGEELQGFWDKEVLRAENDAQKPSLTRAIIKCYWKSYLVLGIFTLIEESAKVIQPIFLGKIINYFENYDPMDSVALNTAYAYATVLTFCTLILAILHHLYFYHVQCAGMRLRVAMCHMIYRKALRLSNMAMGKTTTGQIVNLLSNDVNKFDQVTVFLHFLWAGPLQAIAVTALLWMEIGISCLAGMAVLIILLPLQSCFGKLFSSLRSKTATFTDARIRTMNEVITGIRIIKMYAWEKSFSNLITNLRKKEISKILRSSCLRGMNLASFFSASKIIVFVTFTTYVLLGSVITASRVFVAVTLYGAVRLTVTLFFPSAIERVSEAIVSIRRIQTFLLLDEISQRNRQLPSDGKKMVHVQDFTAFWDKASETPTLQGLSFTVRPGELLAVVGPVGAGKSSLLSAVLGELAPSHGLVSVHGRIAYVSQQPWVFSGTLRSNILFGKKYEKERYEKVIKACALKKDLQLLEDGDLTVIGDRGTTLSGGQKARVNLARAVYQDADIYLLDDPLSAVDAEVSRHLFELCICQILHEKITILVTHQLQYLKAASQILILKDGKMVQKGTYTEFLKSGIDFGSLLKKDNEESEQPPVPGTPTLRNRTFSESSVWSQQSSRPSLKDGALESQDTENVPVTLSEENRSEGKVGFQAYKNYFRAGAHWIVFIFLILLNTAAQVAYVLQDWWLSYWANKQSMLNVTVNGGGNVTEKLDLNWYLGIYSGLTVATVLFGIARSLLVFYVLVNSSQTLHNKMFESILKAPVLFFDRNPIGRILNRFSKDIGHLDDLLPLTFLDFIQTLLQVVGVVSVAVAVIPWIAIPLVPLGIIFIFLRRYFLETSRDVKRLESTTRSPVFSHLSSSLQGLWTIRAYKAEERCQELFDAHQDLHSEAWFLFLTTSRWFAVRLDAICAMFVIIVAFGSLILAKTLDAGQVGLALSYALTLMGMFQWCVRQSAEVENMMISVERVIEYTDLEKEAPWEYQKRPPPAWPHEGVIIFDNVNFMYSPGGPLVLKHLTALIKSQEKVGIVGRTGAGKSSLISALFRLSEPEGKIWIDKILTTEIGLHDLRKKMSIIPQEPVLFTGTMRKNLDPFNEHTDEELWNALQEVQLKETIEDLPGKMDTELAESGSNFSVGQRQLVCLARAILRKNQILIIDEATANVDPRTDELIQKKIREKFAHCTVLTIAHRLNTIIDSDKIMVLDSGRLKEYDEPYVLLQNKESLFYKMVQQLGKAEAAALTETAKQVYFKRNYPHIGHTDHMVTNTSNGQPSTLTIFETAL

T2: human ABCC4 (human, UniProt O15439 1-1325)
T2 construct: Expressed on murine C6 cells stably transfected with human ABCC4 cDNA with C-terminal FLAG tag; also called MRP4; Multidrug resistance protein 4; not shown: C-terminal fused FLAG tag
T2 sequence: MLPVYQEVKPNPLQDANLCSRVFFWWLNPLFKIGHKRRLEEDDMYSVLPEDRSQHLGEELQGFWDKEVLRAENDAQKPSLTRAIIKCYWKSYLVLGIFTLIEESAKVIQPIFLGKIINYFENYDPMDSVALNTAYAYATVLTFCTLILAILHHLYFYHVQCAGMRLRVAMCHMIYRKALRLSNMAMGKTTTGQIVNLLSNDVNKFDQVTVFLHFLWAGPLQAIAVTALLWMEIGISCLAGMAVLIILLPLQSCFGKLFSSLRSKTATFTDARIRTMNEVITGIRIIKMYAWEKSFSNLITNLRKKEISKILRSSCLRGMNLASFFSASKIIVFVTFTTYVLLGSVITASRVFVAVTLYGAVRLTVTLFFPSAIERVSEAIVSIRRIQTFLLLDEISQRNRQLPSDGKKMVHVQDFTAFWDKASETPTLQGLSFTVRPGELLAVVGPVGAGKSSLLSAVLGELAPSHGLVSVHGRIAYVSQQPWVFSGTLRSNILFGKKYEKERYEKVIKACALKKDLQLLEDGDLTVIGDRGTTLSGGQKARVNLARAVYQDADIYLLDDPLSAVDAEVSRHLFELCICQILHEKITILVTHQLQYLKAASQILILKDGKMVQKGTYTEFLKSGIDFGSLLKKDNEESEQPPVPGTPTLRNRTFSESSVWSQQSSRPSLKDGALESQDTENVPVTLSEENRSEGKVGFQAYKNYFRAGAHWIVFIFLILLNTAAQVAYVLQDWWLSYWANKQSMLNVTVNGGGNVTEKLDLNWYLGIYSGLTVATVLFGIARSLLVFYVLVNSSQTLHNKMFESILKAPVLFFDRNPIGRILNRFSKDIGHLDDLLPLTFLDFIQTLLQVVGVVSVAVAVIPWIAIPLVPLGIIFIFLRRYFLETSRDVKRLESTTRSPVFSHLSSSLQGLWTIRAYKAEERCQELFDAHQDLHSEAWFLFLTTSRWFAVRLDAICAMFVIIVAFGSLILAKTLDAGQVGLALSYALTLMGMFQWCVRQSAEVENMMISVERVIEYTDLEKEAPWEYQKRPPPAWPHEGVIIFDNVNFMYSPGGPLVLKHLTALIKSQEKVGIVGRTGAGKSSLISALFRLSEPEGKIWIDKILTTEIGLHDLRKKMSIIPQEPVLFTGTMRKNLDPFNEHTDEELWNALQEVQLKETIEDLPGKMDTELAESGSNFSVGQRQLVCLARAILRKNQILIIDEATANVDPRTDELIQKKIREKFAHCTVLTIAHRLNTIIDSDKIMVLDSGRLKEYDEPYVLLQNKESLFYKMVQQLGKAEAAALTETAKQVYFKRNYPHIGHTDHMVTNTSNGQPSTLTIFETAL


Legend:
human ABCC4 [1] = target: T1, human ABCC4; assay: Flow cytometry (FACS) binding to C6 cells stably transfected to express human ABCC4 (different experiment, Table 4); conditions: C6 cells stably transfected to express human ABCC4, FACS; different experiment, Table 4
Procedure, shortened: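 Murine C6 cells stably expressing FLAG-tagged human or cynomolgus ABCC4 incubated 30 min on ice with antibodies, either 5 ug/mL or serially diluted from 100 ug/mL, in PBS+2% FBS+0.02% azide. Detection with PE anti-human IgG F(ab′)2 by flow cytometry; EC50 at half-maximal MFI; negative below background, positive >3× background.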

human ABCC4 [2] = target: T2, human ABCC4; assay: FACS, C6 cells stably expressing human ABCC4; + = MFI>3x background
Protocol: Antibody binding to cells was evaluated by flow cytometry. Murine C6 cells stably transfected to express human or cynomolgus ABCC4 were washed once in flow cytometry buffer (PBS+2% FBS+0.02% sodium azide), resuspended at 2×10\hat{ }6 cells/mL in flow cytometry buffer, and dispensed into 96-well microtiter plates at 0.1 mL/well. Recombinant antibodies were added to cells at 5 ug/mL for initial binding confirmation, or serially diluted from 100 ug/mL in flow cytometry buffer. After incubating cells on ice for 30 min, cells were washed twice with flow cytometry buffer. Bound antibody was detected with PE-labeled F(ab′)₂ fragment goat anti-human IgG (Jackson ImmunoResearch) and evaluated on an Attune N×T flow cytometer. EC50 is calculated to be the concentration of antibody that gives half maximal response.

Human ABCC4 binding (human ABCC4 [1]) | binding result (human ABCC4 [2]) | Molecule
+ (Positive (+)=MFI>3× background level) | binds | C4.1148 (antibody, V domains shown) VH: EVQLVESDGGLVQPGRSLKLSCAASGFTFSDYYMAWVRQAPPKGLEWVATISYDAFTTYYRDSVKGRFTISRDNAKTILFLQMDSLRSEDTATYYCIRLSTRYKGVMDAWGHGASVTVSS VL: DIQMTQSPSNLAASPGESVSINCKASETIYKYLAWYQQKPGRTNKLLIYSGSTLQSGTPSRFSGSGSGTDFTLTIRNLEPEDFGRYYCQHHVEYPPTFGAGTKLELK
+ (Positive (+)=MFI>3× background level) | binds | C4.1139 (antibody, V domains shown) VH: EVQLVESDGGLVQPGRSLKLSCAASGFTFSDYYMAWVRQAPTKGLYWVASISYDGSTTYYRDSVKGRFTISRDNAKSTLYLQMGSLRSEDTATYYCARLSIRYKGVMDAWGRGASVTVSS VL: DVVMTQSPSNLAASPGESVSINCKASKSIGKFLAWYQQKPGRPNKLLIYSGSTLQSGTPSRFSGSGSGTDFTLTIRNLEPGDFGLYYCQHHIEYPPTFGPGTKLELK
+ (Positive (+)=MFI>3× background level) | binds | C4.1059 (antibody, V domains shown) VH: QVQLLQSGAALVKPGASVKMSCKPSGYTFTDYWVSWVKQSHGKSLEWIGEIYPNNGATNFNEKFKGKATLTVDKSTSTAYMELSRLTSEDSAIYYCPSRKYGYNWNFDYWGQGTMVTVSS VL: DIVLTQSPALAVSLGQRATISCWASQSVSISRYNLMHWYQQKPGQQPKLLIYRASNLASGIPARFSGSGSGTDFTLTINPVQADDIATYYCQQSGESPWTFGGGTKLELK
